# Patent publication US20260146077A1 (US Dept. of Health and Human Services, published 2026)
# Residue numbers refer to the chain shown, from its start.
# B1: B1-182.1HC/182.1LC_95LTG (antibody, V domains shown)
# VH: not shown
# VL: EIVLTQSPGTLSLSPGERATLSCRASQSVSSSYLAWYQQKPGQAPRLLIYGASSRATGFPDRFSGSGSGTDFTLTISRLEPEDFAVYYCQQYGNLTGWTFGQGTKVEIR
# B2: B1-182.1HC/182.1LC_96TG (antibody, V domains shown)
# VH: not shown
# VL: B1 VL with L95S
# B3: B1-182.1HC_F100cS/182.1LC_94GLTG (antibody, V domains shown)
# VH: not shown
# VL: B1 VL with N94G
# B4: B1-182.1HC_F100cS/182.1LC_93VGLTG (antibody, V domains shown)
# VH: not shown
# VL: B1 VL with G93V, N94G
# B5: A23-58.1HC/58.1LC_93VGLT (antibody, V domains shown)
# VH: not shown
# VL: EIVLTQSPGTLSLSPGERATLSCRASQSVSSSYLAWYQQKPGQAPRLLIYSASSRATGIPDRFSGSGSGTDFTLTISRLEPEDFAVYFCQQYVGLTWTFGQGTKVEIK
# B6: A23-58.1HC/58.1LC_95LTG (antibody, V domains shown)
# VH: not shown
# VL: B1 VL with G51S, F59I, Y88F, N94T, R109K
# B7: A23-58.1HC/58.1LC_96TG (antibody, V domains shown)
# VH: not shown
# VL: B1 VL with G51S, F59I, Y88F, N94T, L95S, R109K
# B8: A23-58.1HC/58.1LC_F88Y-94GLTG (antibody, V domains shown)
# VH: not shown
# VL: B1 VL with G51S, F59I, N94G, R109K
# B9: A23-58.1HC/58.1LC_F88Y-93VGLTG (antibody, V domains shown)
# VH: not shown
# VL: B1 VL with G51S, F59I, G93V, N94G, R109K
# B10: A23-58.1HC_Y100cA/58.1LC_94GLTG (antibody, V domains shown)
# VH: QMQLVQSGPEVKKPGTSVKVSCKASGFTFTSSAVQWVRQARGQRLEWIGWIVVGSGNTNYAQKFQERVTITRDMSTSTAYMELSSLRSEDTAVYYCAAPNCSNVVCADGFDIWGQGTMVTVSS
# VL: B1 VL with G51S, F59I, Y88F, N94G, R109K
# B11: A23-58.1HC_Y100cA/58.1LC_93VGLTG (antibody, V domains shown)
# VH: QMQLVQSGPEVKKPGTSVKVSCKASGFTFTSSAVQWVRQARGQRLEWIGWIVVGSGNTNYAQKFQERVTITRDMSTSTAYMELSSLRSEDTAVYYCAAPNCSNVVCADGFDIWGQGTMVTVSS
# VL: B1 VL with G51S, F59I, Y88F, G93V, N94G, R109K
# B12: A23-58.1HC/S2E12LC (antibody, V domains shown)
# VH: not shown
# VL: B1 VL with E1D, S7T, F59I, G93V, N94G, R109K
# B13: B1-182.1HC/182.1LC_94GLTG (antibody, V domains shown)
# VH: not shown
# VL: B1 VL with N94G
# B14: B1-182.1HC/182.1LC_93VGLTG (antibody, V domains shown)
# VH: not shown
# VL: B1 VL with G93V, N94G
# B15: B1-182.1HC/182.1LC_93VGLT (antibody, V domains shown)
# VH: not shown
# VL: B5 VL with S51G, I59F, F88Y, K108R
# B16: A23-58.1HC/58.1LC_96+G (antibody, V domains shown)
# VH: not shown
# VL: B1 VL with G51S, F59I, Y88F, N94T, L95S, T96P, R109K
# B17: A23-58.1HC_Y100cA/58.1LC_93VGLT (antibody, V domains shown)
# VH: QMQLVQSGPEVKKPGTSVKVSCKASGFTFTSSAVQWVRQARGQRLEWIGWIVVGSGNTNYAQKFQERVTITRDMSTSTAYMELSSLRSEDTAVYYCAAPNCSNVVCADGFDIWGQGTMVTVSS
# VL: B5 VL
# Target: T1, SARS-CoV-2 spike protein, BA.1 (SARS-CoV-2, UniProt P0DTC2 14-1273)
# Assay: cell-based or functional assay
Binder,"BA.1 neutralization, fold improvement over B1-182.1 [fold]",pseudovirus neutralization IC50 [µg/mL],"BA.1 neutralization, fold improvement over A19-58.1 [fold]"
B1,> 9,–,–
B2,> 9,–,–
B3,> 46,–,–
B4,> 9,0.0228,–
B5,–,–,> 20
B6,–,–,5
B7,–,–,> 3
B8,–,–,> 3
B9,–,–,> 10
B10,–,–,> 25
B11,–,–,> 6
B12,–,–,10
B13,> 13,–,–
B14,> 17,–,–

# Target: T1, SARS-CoV-2 spike protein, BA.1
# Assay: cell-based or functional assay
# Remark: another data set of the same source
Binder,neutralization IC50 [µg/mL],neutralization IC80 [µg/mL]
B1,0.0206,0.118
B2,0.0206,0.0857
B3,0.0042,0.0167
B4,–,0.0909
B13,0.0142,0.0623
B14,0.0115,0.0396
B15,0.297,3.19

# Target: T2, SARS-CoV-2 spike protein, B.1.351 (SARS-CoV-2, UniProt P0DTC2 14-1273)
# Assay: cell-based or functional assay
Binder,neutralization IC50 [µg/mL],neutralization IC80 [µg/mL]
B1,0.0072,0.014
B2,0.0044,0.0143
B3,0.0022,0.0049
B13,0.0023,0.0063
B14,0.0009,0.0044

# Target: T3, SARS-CoV-2 spike protein, B.1.617.2 (SARS-CoV-2, UniProt P0DTC2 14-1273)
# Assay: cell-based or functional assay
Binder,neutralization IC50 [µg/mL],neutralization IC80 [µg/mL]
B1,0.0068,0.0151
B2,0.004,0.0084
B3,0.0018,0.0052
B13,0.0041,0.0086
B14,0.0014,0.0059

# Target: T1, SARS-CoV-2 spike protein, BA.1
# Assay: cell-based or functional assay
# Remark: another data set of the same source
Binder,neutralization IC50 [µg/mL],neutralization IC80 [µg/mL]
B5,0.0048,0.0187
B6,0.0214,0.0454
B7,0.0294,0.0658
B8,0.0261,0.0919
B9,0.0093,0.0426
B10,0.0038,0.016
B11,0.0155,0.0419
B12,0.0098,0.0311
B16,0.133,0.917
B17,0.306,2.54

# Target: SARS-CoV-2 spike protein, BA.1.1 (SARS-CoV-2, UniProt P0DTC2 14-1273)
# Assay: cell-based or functional assay
Binder,neutralization IC50 [µg/mL],neutralization IC80 [µg/mL]
B12,0.0038,0.0158

# Target: T2, SARS-CoV-2 spike protein, B.1.351
# Assay: cell-based or functional assay
# Remark: another data set of the same source
Binder,neutralization IC50 [µg/mL],neutralization IC80 [µg/mL]
B5,0.001,0.0032
B6,0.0035,0.0091
B7,0.0027,0.0066
B8,0.0044,0.0116
B9,0.0023,0.0088
B10,0.0023,0.0063
B11,0.0011,0.0043
B12,0.0035,0.0079
B16,0.0105,0.0292

# Target: T3, SARS-CoV-2 spike protein, B.1.617.2
# Assay: cell-based or functional assay
# Remark: another data set of the same source
Binder,neutralization IC50 [µg/mL],neutralization IC80 [µg/mL]
B5,0.0009,0.0024
B6,0.0028,0.0116
B7,0.0054,0.0131
B8,0.0063,0.0188
B9,0.006,0.0162
B10,0.0131,0.0165
B11,0.003,0.0098
B12,0.0022,0.0076
B16,0.0046,0.0112

# Target: SARS-CoV-2 spike protein, BA.2 (SARS-CoV-2, UniProt P0DTC2 14-1273)
# Assay: cell-based or functional assay
Binder,neutralization IC50 [µg/mL],neutralization IC80 [µg/mL]
B12,0.0067,0.0269

# Target: SARS-CoV-2 spike protein, BA.2.12.1 (SARS-CoV-2, UniProt P0DTC2 14-1273)
# Assay: cell-based or functional assay
Binder,neutralization IC50 [µg/mL],neutralization IC80 [µg/mL]
B5,0.0091,0.0431
B8,0.0417,0.0956
B9,0.0099,0.0422
B10,0.0193,0.051
B11,0.0242,0.0621
B12,0.0566,0.201
B17,0.48,2.05
